Measurements reported in patent US20230034768A1 (BIOSION, published 2023).
Residue numbers refer to the chain shown, from its start. Read-outs that look alike come from different tables or passages of the source. One block for each binder: values may come before it.

Key:
[1] = target: T1, biotin-labeled human RANKL-Fc protein (prepared in house, SEQ ID NO.: 40) (human, biotin-labeled (sites not given)); assay: competitive ELISA: antibody blocks biotin-labeled human RANKL-Fc binding to coated human RANK-Fc
T1 construct: also called RANKL-Fc-biotin
Method: (§1) Briefly, human RANK-Fc proteins (prepared in house, SEQ ID NO.: 41) were coated on 96-well micro plates at 2.0 μg/mL in PBS, 100 μl/well, and incubated overnight at 4° C. The next day, plates were washed with wash buffer (PBS+0.05% w/v Tween-20, PBST), and blocked with 5% w/v non-fatty milk in PBST, 200 μl/well, for 2 hours at 37° C.
(§2) Plates were washed 4 times using wash buffer, and added and incubated with 100 μl/well of streptavidin conjugated HRP (1:10000 dilution in PBST buffer, Jackson ImmunoResearch Laboratories, Inc., Cat #016-030-084) for 40 minutes at 37° C. Plates were washed again using wash buffer. Finally, TMB was added and the reaction was stopped using 1M H₂SO₄, and the absorbance of each well was read on a microplate reader using dual wavelengths mode with 450 nm for TMB and 630 nm as the reference wavelength. The OD (450-630) values were plotted against antibody concentration. Data were analyzed using Graphpad Prism software and IC₅₀ values were reported.

[2] = target: T1, biotin-labeled human RANKL-Fc protein …; assay: competitive ELISA: antibody blocks biotin-labeled human RANKL-Fc binding to coated benchmark denosumab
Method: The next day, plates were washed with wash buffer, and blocked with 5% w/v non-fatty milk in PBST, 200 μl/well, for 2 hours at 37° C. […] After incubation at 37° C. for 40 minutes, plates were washed 4 times using wash buffer. Then the plates were added and incubated with 100 μl Peroxidase Streptavidin (1:5000 dilution in PBST buffer, Jackson Immunoresearch, Cat #016-030-084) for 40 minutes at 37° C. Plates were washed again using wash buffer. Finally, TMB was added and the reaction was stopped using 1M H₂SO₄. The absorbance of each well was read on a microplate reader using dual wavelengths mode with 450 nm for TMB and 630 nm as the reference wavelength, and the OD (450-630) values were plotted against antibody concentration. Data were analyzed using Graphpad Prism software and IC₅₀ values were reported.

[3] = target: T1, biotin-labeled human RANKL-Fc protein …; assay: capture ELISA: captured antibody, biotin-labeled human RANKL-Fc, OD(450-630)
Method: (§3) Plates were washed once with wash buffer (PBS+0.05% v/v Tween-20, PBST) and then blocked with 200 μl/well blocking buffer (5% w/v non-fatty milk in PBST) for 2 hours at 37° C. […] After a final wash, plates were incubated with 100 μl/well ELISA substrate TMB (Innoreagents, Cat #TMB-S-002) at room temperature. The reaction was stopped in 3-10 minutes with 50 μl/well 1M H₂SO₄, and the absorbance of each well was read on a microplate reader using dual wavelengths mode with 450 nm for TMB and 630 nm as the reference wavelength. The OD (450-630) values were plotted against antibody concentration. Data were analyzed using Graphpad Prism software and EC₅₀ values were reported.
Cell supernatants were harvested after six days in shaking flasks, spun down to pellet cells, and then chimeric antibodies were purified from cell supernatants as described above. The purified antibodies were tested in the capture ELISA, competitive ELISA assay and Octet affinity test following the protocols in the foregoing Examples.

[4] = target: T2, Recombinant human RANKL-his protein (R&D, Cat #6449-TEC-010) (human, UniProt O14788 140-317, limits assumed); assay: cell-based or functional assay
T2 sequence (looked up): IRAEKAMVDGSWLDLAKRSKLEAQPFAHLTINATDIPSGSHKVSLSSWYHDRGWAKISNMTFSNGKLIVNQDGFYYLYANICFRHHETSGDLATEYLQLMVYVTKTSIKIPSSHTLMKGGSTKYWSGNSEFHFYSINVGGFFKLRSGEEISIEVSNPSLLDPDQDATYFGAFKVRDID

[5] = target: T1, biotin-labeled human RANKL-Fc protein …; assay: competitive ELISA: antibody blocks biotin-labeled human RANKL-Fc binding to coated human RANK-Fc; remark: listed apart in the source
Method: as §1, §2

[6] = target: T2, Recombinant human RANKL-his protein …; assay: cell-based or functional assay; remark: listed apart in the source
[7] = target: T3, human RANKL-his protein (prepared in-house with SEQ ID NO: 43) (human, UniProt O14788 136-317); assay: Octet BLI, antibody captured on AHC/AMC sensor, human RANKL-his in solution, 1:1 fit
T3 construct: also called recombinant human RANKL-his
T3 chain: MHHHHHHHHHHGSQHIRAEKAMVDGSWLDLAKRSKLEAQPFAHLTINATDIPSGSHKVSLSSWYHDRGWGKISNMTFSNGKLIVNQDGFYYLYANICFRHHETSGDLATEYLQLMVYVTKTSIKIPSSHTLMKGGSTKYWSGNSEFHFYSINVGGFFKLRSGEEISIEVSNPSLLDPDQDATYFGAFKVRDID
Method: (§4) Briefly, AHC/AMC biosensors (anti-human/anti-mouse IgG Fc capture, ForteBio) were presoaked with 10 mM glycine (pH 1.5) for 3 seconds, and then dipped in a well with running buffer (0.5% w/v BSA in PBST) for 3 seconds, the soaking and dipping steps were repeated for three times. […] A new baseline was run for 180 seconds in another well with HBS-EP⁺. […] Finally, sensors were presoaked with 10 mM glycine (pH 1.5) for 3 seconds, and then dipped in a well with running buffer for 3 seconds, the soaking and dipping steps repeated for three times. The association and dissociation curves were fit to a 1:1 Langmuir binding model using Octet evaluation software.

[8] = target: T1, biotin-labeled human RANKL-Fc protein …; assay: capture ELISA: captured antibody, biotin-labeled human RANKL-Fc, OD(450-630); remark: listed apart in the source
Method: as §3
For the capture ELISA, 96-well micro plates were coated with 2 μg/ml goat anti-human IgG (AffiniPure Goat Anti-Human IgG, F(ab′)₂ fragment specific, Jackson Immunoresearch, Cat #109-005-097) instead of AffiniPure Goat Anti-Mouse IgG, Fcγ fragment specific, 100 μl/well.

[9] = target: T3, human RANKL-his protein (prepared …); assay: Octet BLI, antibody captured, human RANKL-his in solution (same value as Table 2)
Method: as §4

[10] = target: T1, biotin-labeled human RANKL-Fc protein …; assay: competitive ELISA: antibody blocks biotin-labeled human RANKL-Fc binding to coated benchmark denosumab; remark: listed apart in the source
[11] = target: T1, biotin-labeled human RANKL-Fc protein …; assay: capture ELISA: captured antibody, biotin-labeled human RANKL-Fc, OD(450-630); remark: listed apart in the source
Method: as §3

[12] = target: T2, Recombinant human RANKL-his protein …; assay: cell-based or functional assay; remark: listed apart in the source
[13] = target: T2, Recombinant human RANKL-his protein …; assay: cell-based or functional assay; remark: listed apart in the source
[14] = target: T2, Recombinant human RANKL-his protein …; assay: cell-based or functional assay; remark: listed apart in the source

- IC50 [1]: 0.0802 nM
- IC50 [2]: 0.391 nM
- EC50 [3]: 1.11 nM
- IC50, RANKL-induced osteoclast differentiation of RAW264.7 cells (pNPP, OD405) [4]: 3.41 nM
- IC50 [5]: 0.414 nM
- IC50, RANKL-induced osteoclast differentiation of RAW264.7 cells (pNPP, OD405) [6]: 0.839 nM
- Kd [7]: 0.0718 nM
- koff [7]: 7.9e-05 s⁻¹
- kon [7]: 1.1e+06 M⁻¹ s⁻¹
- EC50 [8]: 0.632 nM
- Kd [9]: 0.0718 nM
- IC50 [10]: 1.28 nM
- EC50 [11]: 0.0826 nM
B1: mouse anti-RANKL monoclonal antibody D1A1 (antibody, V domains shown)
VH: EVQLVESGGGLVKSGGSLKLSCAASGFTFRNYAMSWVRQTPEKRLEWVAGISSGGTYTYYPDTVKGRFTISRDNARNTLFLQMSSLRSEDTAMYYCARRDYGDVYEWYFDVWGTGTTVTVSS
VL: DIVMTQSHKFMSTSVGDRVSITCKASQDVRTSIAWYQQKPGQSPNLLIYSASYRYTGVPDRFTGSGSGTDFTFTISSVQAEDLAVYYCQQHYSSPWTFGGGTKLEIK
notes: Hybridoma-derived mouse IgG purified on Protein A; also called Mouse D1A1

- IC50 [1]: 0.0365 nM
- IC50 [2]: 0.164 nM
- EC50 [3]: 0.246 nM
- EC50 [11]: 0.0464 nM
- IC50, RANKL-induced osteoclast differentiation of RAW264.7 cells (pNPP, OD405) [13]: 0.998 nM
B4: mouse anti-RANKL monoclonal antibody D1E3 (antibody, V domains shown)
VH: B1 VH with S14P, R30S, N31R, N74S, R76K, T78I, F80Y, S84G, T91S, Y95H
VL: B1 VL with T13A, D28G, T31I, S32A, I33V, N45K, Y92H
notes: Hybridoma-derived mouse IgG; also called Mouse D1E3

The remaining lines, values behind:

B2: mouse anti-RANKL monoclonal antibody B3D8 (antibody, V domains shown)
VH: EVQLVESGGDLVKSGGSLKLSCAASGFTFSRYGMSWVRQTPDKRLEWVASISSGGTYTSYPDSVKGRFTITRDSAKNTLYLQMSSLKSEDTAMYYCARRNFITSATDCYFDVWGAGTTVTVSS
VL: DTVLTQSPATLSVTPGASVSLSCRASQSISNNLHWYQQKSHESPRLLIIYASQSISGIPSRFSGSGSGTDFTLSINSVETEDFGVYFCQQSNSWPFTFGGGTKLEIK
notes: Hybridoma-derived mouse IgG; also called Mouse B3D8
- IC50 [1]: 0.233 nM
- IC50 [2]: 0.548 nM
- EC50 [3]: 0.489 nM
- IC50, RANKL-induced osteoclast differentiation of RAW264.7 cells (pNPP, OD405) [6]: 0.625 nM
- Kd [7]: 0.452 nM
- koff [7]: 0.000277 s⁻¹
- kon [7]: 613000 M⁻¹ s⁻¹
- Kd [9]: 0.452 nM
- EC50 [11]: 0.162 nM

B3: mouse anti-RANKL monoclonal antibody B1A8 (antibody, V domains shown)
VH: B2 VH with S14P, K65Q
VL: B2 VL
notes: Hybridoma-derived mouse IgG; also called Mouse B1A8
- IC50 [1]: 0.26 nM
- IC50 [2]: 0.498 nM
- EC50 [3]: 0.493 nM
- IC50, RANKL-induced osteoclast differentiation of RAW264.7 cells (pNPP, OD405) [12]: 0.967 nM
- Kd [7]: 0.386 nM
- koff [7]: 0.000236 s⁻¹
- kon [7]: 611000 M⁻¹ s⁻¹
- Kd [9]: 0.386 nM
- EC50 [11]: 0.397 nM

B5: mouse anti-RANKL monoclonal antibody B4H5 (antibody, V domains shown)
VH: DVQLQESGPDLVKPSQSLSLTCTVTGYSISSGYSWHWIRQFPGNKLEWMDYIHFSGSTNYNPSLKSRISITRDTSKNQFFLQFISVTTEDTATYYCARSGPSTYVMDYWGQGTSVTVSS
VL: DIVMTQSHRFMSTSVGDRVSITCKASQDVGAAVGWYQQKPGQSPKLLIYWASIRDTGVPDRFTGSGSGTDFTLTISNVQSEDLADYFCQHYNSYPLTFGGGTKLEIK
notes: Hybridoma-derived mouse IgG
- IC50 [1]: 2.1 nM
- IC50, RANKL-induced osteoclast differentiation of RAW264.7 cells (pNPP, OD405) [14]: 1.31 nM
- EC50 [11]: 0.583 nM
